A word on the IC50: it is the midpoint of a concentration-inhibition curve. High values mean lower potency, low ones higher potency.

B1: Ac-D-Arg-c[Cys-Pro-His-D-Phe-His-Trp-Cys]-Pro-Pro-D-Arg-Glu-Nle-NH2 (peptide)
peptide: Ac-[dR]CPH[dF]HWCPP[dR]E[Nle]-NH2
modifications: disulfide 2-8
SMILES: CCCC[C@H](NC(=O)[C@H](CCC(=O)O)NC(=O)[C@@H](CCCNC(=N)N)NC(=O)[C@@H]1CCCN1C(=O)[C@@H]1CCCN1C(=O)[C@@H]1CSSC[C@H](NC(=O)[C@@H](CCCNC(=N)N)NC(C)=O)C(=O)N2CCC[C@H]2C(=O)N[C@@H](Cc2c[nH]cn2)C(=O)N[C@H](Cc2ccccc2)C(=O)N[C@@H](Cc2c[nH]cn2)C(=O)N[C@@H](Cc2c[nH]c3ccccc23)C(=O)N1)C(N)=O
notes: Synthetic cyclic peptide; also called Chem. 7
B2: Ac-Arg-c[Cys-Pro-His-D-Phe-His-Trp-Cys]-Pro-Pro-D-Arg-Glu-Nle-NH2 (peptide)
peptide: Ac-RCPH[dF]HWCPP[dR]E[Nle]-NH2
modifications: disulfide 2-8
SMILES: CCCC[C@H](NC(=O)[C@H](CCC(=O)O)NC(=O)[C@@H](CCCNC(=N)N)NC(=O)[C@@H]1CCCN1C(=O)[C@@H]1CCCN1C(=O)[C@@H]1CSSC[C@H](NC(=O)[C@H](CCCNC(=N)N)NC(C)=O)C(=O)N2CCC[C@H]2C(=O)N[C@@H](Cc2c[nH]cn2)C(=O)N[C@H](Cc2ccccc2)C(=O)N[C@@H](Cc2c[nH]cn2)C(=O)N[C@@H](Cc2c[nH]c3ccccc23)C(=O)N1)C(N)=O
notes: Synthetic cyclic peptide; also called Chem. 1
B3: Ac-c[Cys-Pro-His-D-Cl-Phe-His-Trp-Cys]-Pro-Pro-D-Arg-Glu-Nle-D-Arg-D-Arg-NH2 (peptide)
peptide: Ac-CPH[dPhe(4-Cl)]HWCPP[dR]E[Nle][dR][dR]-NH2
modifications: disulfide 1-7
SMILES: CCCC[C@H](NC(=O)[C@H](CCC(=O)O)NC(=O)[C@@H](CCCNC(=N)N)NC(=O)[C@@H]1CCCN1C(=O)[C@@H]1CCCN1C(=O)[C@@H]1CSSC[C@H](NC(C)=O)C(=O)N2CCC[C@H]2C(=O)N[C@@H](Cc2c[nH]cn2)C(=O)N[C@H](Cc2ccc(Cl)cc2)C(=O)N[C@@H](Cc2c[nH]cn2)C(=O)N[C@@H](Cc2c[nH]c3ccccc23)C(=O)N1)C(=O)N[C@H](CCCNC(=N)N)C(=O)N[C@H](CCCNC(=N)N)C(N)=O
notes: Synthetic cyclic peptide; also called Chem. 10
B4: Ac-Arg-c[Cys-Pro-His-D-Phe-His-Trp-Cys]-Pro-Pro-D-Arg-Glu-Nle-Lys-NH2 (peptide)
peptide: Ac-RCPH[dF]HWCPP[dR]E[Nle]K-NH2
modifications: disulfide 2-8
SMILES: CCCC[C@H](NC(=O)[C@H](CCC(=O)O)NC(=O)[C@@H](CCCNC(=N)N)NC(=O)[C@@H]1CCCN1C(=O)[C@@H]1CCCN1C(=O)[C@@H]1CSSC[C@H](NC(=O)[C@H](CCCNC(=N)N)NC(C)=O)C(=O)N2CCC[C@H]2C(=O)N[C@@H](Cc2c[nH]cn2)C(=O)N[C@H](Cc2ccccc2)C(=O)N[C@@H](Cc2c[nH]cn2)C(=O)N[C@@H](Cc2c[nH]c3ccccc23)C(=O)N1)C(=O)N[C@@H](CCCCN)C(N)=O
notes: Synthetic cyclic peptide; also called Chem. 2
B5: Ac-Arg-c[Cys-Pro-His-D-Phe-His-Trp-Cys]-Pro-Pro-D-Arg-Glu-Nle-Arg-NH2 (peptide)
peptide: Ac-RCPH[dF]HWCPP[dR]E[Nle]R-NH2
modifications: disulfide 2-8
SMILES: CCCC[C@H](NC(=O)[C@H](CCC(=O)O)NC(=O)[C@@H](CCCNC(=N)N)NC(=O)[C@@H]1CCCN1C(=O)[C@@H]1CCCN1C(=O)[C@@H]1CSSC[C@H](NC(=O)[C@H](CCCNC(=N)N)NC(C)=O)C(=O)N2CCC[C@H]2C(=O)N[C@@H](Cc2c[nH]cn2)C(=O)N[C@H](Cc2ccccc2)C(=O)N[C@@H](Cc2c[nH]cn2)C(=O)N[C@@H](Cc2c[nH]c3ccccc23)C(=O)N1)C(=O)N[C@@H](CCCNC(=N)N)C(N)=O
notes: Synthetic cyclic peptide; also called Chem. 8

Positions of bridges follow the written chain, without caps; N, C: chain ends. Non-standard residues stand in square brackets, D forms with d. dPhe(4-Cl) = N[C@H](Cc1ccc(Cl)cc1)C(=O)O; Nle = CCCC[C@H](N)C(=O)O

For the first assay, the target named is T1, human MC4 receptor (human, UniProt P32245 1-332).
T1 construct: whole, on cells; cAMP assay used whole BHK cells; also called melanocortin 4 receptor
T1 sequence (P32245 whole entry): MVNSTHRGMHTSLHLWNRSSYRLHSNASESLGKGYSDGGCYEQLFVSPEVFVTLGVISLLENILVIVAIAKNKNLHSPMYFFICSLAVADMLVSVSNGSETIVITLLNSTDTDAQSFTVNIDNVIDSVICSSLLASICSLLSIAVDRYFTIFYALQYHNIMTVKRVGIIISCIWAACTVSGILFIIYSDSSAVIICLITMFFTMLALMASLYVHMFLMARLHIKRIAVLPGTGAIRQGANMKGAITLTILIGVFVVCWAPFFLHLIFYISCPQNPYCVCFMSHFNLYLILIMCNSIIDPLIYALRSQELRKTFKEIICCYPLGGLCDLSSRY
Put plainly: SPA competition binding, displacement of 125I-NDP-α-MSH, BHK membranes with human MC4R. The procedure: (§1) The SPA Binding assay was performed in 96-well white opaque plates. Each well contained: 0.5 mg PVT-WGA SPA beads, MC4 receptor expressing membrane diluted to give approximately 10% specific tracer binding, 50.000 dpm ¹²⁵I-NDP-α-MSH and relevant dilutions of test compound. The final volume in each well was 200 μl. […] Plates were incubated overnight (22-24 hours) at room temperature before counting for 2 minutes per well, using a TopCount NXT scintillation counter. Displacement of radio ligand is measured as reduction in light emission from SPA beads, and IC₅₀ values are calculated by nonlinear regression analysis of sigmoidal dose-response curves in GraphPad Prism (GraphPad Software, La Jolla, Calif., USA).
In general terms: In a radioligand displacement assay an active substance lowers the binding of a labelled ligand.
The molecule B1 displayed an IC50 of 6.31 nM.

For B2, the concentration for half-maximal inhibition (IC50) was determined as 1.47 nM.

In turn, B3 gave a concentration for half-maximal inhibition (IC50) of 0.28 nM.

Turning to B4, the IC50 is 0.71 nM.

B5 came in with an IC50 of 0.68 nM.

For a further assay, the target named is T2, human MC1 receptor (human, UniProt Q01726 1-317).
T2 construct: whole, on cells; cAMP assay used whole BHK cells; also called melanocortin 1 receptor
T2 sequence (Q01726 whole entry): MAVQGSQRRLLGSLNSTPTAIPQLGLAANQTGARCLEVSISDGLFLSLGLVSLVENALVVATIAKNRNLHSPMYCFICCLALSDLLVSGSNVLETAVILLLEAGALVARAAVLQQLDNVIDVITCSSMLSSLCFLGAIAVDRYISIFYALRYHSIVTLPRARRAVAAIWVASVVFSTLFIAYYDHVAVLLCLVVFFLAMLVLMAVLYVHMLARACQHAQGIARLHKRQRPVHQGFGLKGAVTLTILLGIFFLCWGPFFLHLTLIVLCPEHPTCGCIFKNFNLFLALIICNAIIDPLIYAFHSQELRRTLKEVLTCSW
Put plainly: SPA competition binding, displacement of 125I-NDP-α-MSH, BHK membranes with human MC1R. The procedure:
as §1, with “MC1” for “MC4”
In turn, B1 returned a half-maximal inhibitory concentration (IC50) of 816 nM.

Regarding B2, the IC50 was found to be 374 nM.

Molecule B3 registered an IC50 of 172 nM.

For B4, the IC50 was 144 nM.

The molecule B5 registered an IC50 of 128 nM.

In another assay the target is T2, human MC1 receptor. Put plainly: cell-based or functional assay.
Regarding B1, the “MC1R cAMP EC50” value was 649 nM.

For B4, the “MC1R cAMP EC50” value worked out at 288 nM.

On to B5, for which the “MC1R cAMP EC50” value came to 270 nM.

Another assay deals with T1, human MC4 receptor. The assay can be described thus: cell-based or functional assay.
As for B1, the “MC4R cAMP EC50” value is 2.72 nM.

Consider B2, for which the “MC4R cAMP EC50” value is 1.51 nM.

As for B3, the “MC4R cAMP EC50” value was found to be 0.43 nM.

For B4, the “MC4R cAMP EC50” value came out at 1.17 nM.

Regarding B5, the “MC4R cAMP EC50” value was found to be 0.6 nM.
